Assay results published in patent publication US20050221443A1 (published 2005).

Target: T1, RANK-L (UniProt O14788 140-317, limits assumed)
T1 sequence (looked up): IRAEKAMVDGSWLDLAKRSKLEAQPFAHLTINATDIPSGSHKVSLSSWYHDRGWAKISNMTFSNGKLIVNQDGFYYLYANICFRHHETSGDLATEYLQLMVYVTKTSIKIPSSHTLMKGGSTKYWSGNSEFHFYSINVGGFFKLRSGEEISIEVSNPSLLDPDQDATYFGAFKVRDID
Assay: polarization anisotropy at steady state, 1 ug/mL Alexa568 TNF with increasing concentrations of RANK-L, 1 hour at 37 C
Protocol: This assay necessitated a fluorescently labeled TNF trimer that at limiting concentrations could be used as a tracer to monitor exchange. We generated a TNF variant (R31C/C69V/C101A) and specifically labeled it with Alexa568 maleimide at the R31 position. Polarization anisotropy measures heterotrimer formation at steady-state. We mixed 1 ug/mL Alexa568 TNF either alone (open circles) or with increasing concentrations of RANK-L (open squares), PEG20k-A145R/Y87H TNF, PEG5k-A145R/Y87H, or A145R/Y87H in PBS/0.02% igepal for 1 hour at 37 C. These reactions were placed into the spectroscopic instrument-and the steady-state anisotropy was measured. […] (FIG. 8B) Addition of surfactant excipients catalyzes the exchange between TNF homotrimers. We mixed together 1 ug/mL Alexa568 TNF alone (open circles) or with 100 ug/mL PEG-5k A145R/I97T TNF (closed circles) in a 96-well assay format and began anisotropy measurements. After ˜2000 seconds the instrument was paused and 0.5% polysorbate-20 or polysorbate-80 were added and the measurement was resumed.

B1: Alexa568 TNF (TNF variant R31C/C69V/C101A labeled with Alexa568 maleimide) (ligand, human, UniProt P01375 77-233, looked up)
chain: VRSSSRTPSDKPVAHVVANPQAEGQLQWLNCRANALLANGVELRDNQLVVPSEGLYLIYSQVLFKGQGVPSTHVLLTHTISRIAVSYQTKVNLLSAIKSPAQRETPEGAEAKPWYEPIYLGGVFQLEKGDRLSAEINRPDYLDFAESGQVYFGIIAL
modifications: Alexa568 maleimide at the R31 position (Cys of R31C)
notes: extracellular domain; Fluorescent tracer homotrimer
- binding result: no binding
